# Laboratory results as given in patent publication US5844093.
# Experiments:
# [1] = biological target: EGFR on EGFR-bearing tumor cells (human) (UniProt P00533); assay: flow cytometry, MDA MB 231 cells, crude bacterial supernatant
# [2] = biological target: EGFR on EGFR-bearing tumor cells (human) (UniProt P00533); assay: flow cytometry, A431 cells, crude bacterial supernatant
# [3] = biological target: EGFR on EGFR-bearing tumor cells (human) (UniProt P00533); assay: flow cytometry, HT29 cells, crude bacterial supernatant
substance,measurement,setting,value
scFv derived from MAb 425,mean of arbritary fluorescence units (arbitrary fluorescence units),[1],21.3
same,mean of arbritary fluorescence units (arbitrary fluorescence units),[2],85.5
same,mean of arbritary fluorescence units (arbitrary fluorescence units),[3],2.5
